This data set deals with IgG Fc dimer protein, P01857-1. Conditions: printed ggAGG[2'-F-rU]Gc[2'-F-rU]ccgaaaGgaa[2'-F-rC][2'-F-rU]cc (lowercase DNA, uppercase RNA); about 10 oxanine nucleotides added at 3' end; at least one aptamer per Fc dimer, one or two observed; HEPES pH 8.4, Mg, K, 37 C, 1 day.

Where only a bound is given, the exact number is not on record here.

In turn, “GGAGGTGCTCCGAAAGGAACTCC [Fc RNA aptamer Apt8-2-oxanine]” displayed an activity (% conjugation) of over 98.

Values taken from patent US20240424107.
